Data reported in patent US20250122306A1 (SUTRO BIOPHARMA, published 2025).
Where a chain is given by its changes, count along the chain named.

B1: SRP2900-A08 (antibody, IgG1, V domains shown)
VH: EVQLVESGGGLVQPGGSLRLSCAASGFTLTGYWIHWVRQAPGKGLEWVGYIDPYNGATYYADSVKGRFTISADTSKNTAYLQMNSLRAEDTAVYYCARADYYYVDEYWDYWGQGTLVTVSS
VL: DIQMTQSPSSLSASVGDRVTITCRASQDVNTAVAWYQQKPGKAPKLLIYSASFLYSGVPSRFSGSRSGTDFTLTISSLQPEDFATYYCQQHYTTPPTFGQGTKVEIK
B2: SRP2900-B09 (antibody, IgG1, V domains shown)
VH: B1 VH with L29I, T30S, G31Q, Y50F, A57Y, Y59N, K76E
VL: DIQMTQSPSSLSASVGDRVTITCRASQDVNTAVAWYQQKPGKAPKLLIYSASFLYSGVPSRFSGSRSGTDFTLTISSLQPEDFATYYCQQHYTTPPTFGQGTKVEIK
B3: SRP2900-B04 (antibody, IgG1, V domains shown)
VH: B1 VH with L29I, T30S, G31E, Y50F, A57Y, Y59G, K65R
VL: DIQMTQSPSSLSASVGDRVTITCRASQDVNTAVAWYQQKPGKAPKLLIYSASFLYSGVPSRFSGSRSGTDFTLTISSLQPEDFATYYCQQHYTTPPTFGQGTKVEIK
B4: SRP2900-B07 (antibody, IgG1, V domains shown)
VH: B1 VH with L29I, T30A, G31D, Y50F, A57Y, Y59G, T74N, Y102H, Y103G
VL: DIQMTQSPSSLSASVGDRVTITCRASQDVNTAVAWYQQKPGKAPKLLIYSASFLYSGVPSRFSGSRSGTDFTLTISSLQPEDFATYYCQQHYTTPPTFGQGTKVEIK
B5: SRP2900-B06 (antibody, IgG1, V domains shown)
VH: B1 VH with L29I, T30P, G31S, Y102H, Y103G
VL: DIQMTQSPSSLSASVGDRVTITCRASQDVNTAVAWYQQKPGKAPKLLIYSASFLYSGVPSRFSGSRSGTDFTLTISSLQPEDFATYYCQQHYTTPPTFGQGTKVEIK
B6: SRP2900-B05 (antibody, IgG1, V domains shown)
VH: B1 VH with L29I, T30S, Y103G, Y107F, W108L
VL: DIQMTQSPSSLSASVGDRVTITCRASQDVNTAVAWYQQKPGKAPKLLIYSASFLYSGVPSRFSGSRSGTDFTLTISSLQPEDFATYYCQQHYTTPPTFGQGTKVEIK
B7: SRP2900-C04 (antibody, IgG1, V domains shown)
VH: B1 VH with L29I, T30V, G31S
VL: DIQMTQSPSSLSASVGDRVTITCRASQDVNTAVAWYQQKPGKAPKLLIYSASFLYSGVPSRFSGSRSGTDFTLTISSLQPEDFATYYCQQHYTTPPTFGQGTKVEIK
B8: SRP2900-A09 (antibody, IgG1, V domains shown)
VH: B1 VH with L29I, T30A, G31D
VL: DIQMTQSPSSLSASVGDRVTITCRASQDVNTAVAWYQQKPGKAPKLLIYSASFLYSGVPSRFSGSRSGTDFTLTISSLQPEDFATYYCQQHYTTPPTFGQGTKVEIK
B9: SRP2900-C02 (antibody, IgG1, V domains shown)
VH: B1 VH with L29I, T30S, G31S
VL: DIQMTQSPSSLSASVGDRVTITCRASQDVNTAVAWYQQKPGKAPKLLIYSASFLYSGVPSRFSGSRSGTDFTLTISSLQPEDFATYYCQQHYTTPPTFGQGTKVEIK
B10: SRP2900-B10 (antibody, IgG1, V domains shown)
VH: B1 VH with L29I, T30P, G31A, A57S
VL: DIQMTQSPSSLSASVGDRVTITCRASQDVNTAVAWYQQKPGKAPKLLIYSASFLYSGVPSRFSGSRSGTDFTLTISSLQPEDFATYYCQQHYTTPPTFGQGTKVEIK
B11: SRP2900-B01 (antibody, IgG1, V domains shown)
VH: B1 VH with L29I, T30S, W108L
VL: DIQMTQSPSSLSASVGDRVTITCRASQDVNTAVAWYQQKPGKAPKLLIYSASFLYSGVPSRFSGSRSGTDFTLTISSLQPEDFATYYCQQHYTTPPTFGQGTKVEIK
B12: SRP2900-C05 (antibody, IgG1, V domains shown)
VH: B1 VH with L29I, T30S, S75P, Y102H, Y103G
VL: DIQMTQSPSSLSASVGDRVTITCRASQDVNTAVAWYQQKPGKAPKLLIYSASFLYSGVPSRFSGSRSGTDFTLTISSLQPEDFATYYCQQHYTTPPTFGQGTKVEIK
B13: SRP2900-C07 (antibody, IgG1, V domains shown)
VH: B1 VH with L29I, T30S, W108F
VL: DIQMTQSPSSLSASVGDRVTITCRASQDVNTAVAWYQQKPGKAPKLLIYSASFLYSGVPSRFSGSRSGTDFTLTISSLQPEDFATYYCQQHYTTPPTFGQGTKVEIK
B14: SRP2900-B08 (antibody, IgG1, V domains shown)
VH: B1 VH with L29I, T30P, G31S, A57Y, W108F
VL: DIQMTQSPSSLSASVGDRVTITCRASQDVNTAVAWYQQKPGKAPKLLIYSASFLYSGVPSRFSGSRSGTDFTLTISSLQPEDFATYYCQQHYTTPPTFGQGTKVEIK
B15: SRP2900-B02 (antibody, IgG1, V domains shown)
VH: B1 VH with L11S, L29I, T30S, G31D
VL: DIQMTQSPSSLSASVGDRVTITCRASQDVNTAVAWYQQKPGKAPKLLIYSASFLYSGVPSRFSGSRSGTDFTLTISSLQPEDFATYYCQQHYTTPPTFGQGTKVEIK
B16: SRP2900-B03 (antibody, IgG1, V domains shown)
VH: B1 VH with A23S, L29I, T30A, G31D
VL: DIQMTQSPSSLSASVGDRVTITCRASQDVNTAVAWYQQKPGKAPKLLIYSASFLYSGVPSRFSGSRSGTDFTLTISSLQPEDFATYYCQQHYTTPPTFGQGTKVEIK
B17: SRP2900-B11 (antibody, IgG1, V domains shown)
VH: B1 VH with L29I, T30P, G31A, Y54S, A57Y, T74A, V93A, Y102H, Y103G
VL: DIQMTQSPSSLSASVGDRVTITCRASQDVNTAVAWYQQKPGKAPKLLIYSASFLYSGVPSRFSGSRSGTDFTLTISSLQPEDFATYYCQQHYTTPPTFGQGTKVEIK
B18: SRP2900-C10 (antibody, IgG1, V domains shown)
VH: EVQLVESGGGLVQPGGSLRLSCAASGFTISDYWIHWVRQAPGKGLEWVGYIDPYNGYTYYADSVNGRFTISADTSKNTAYLQMNSLRAEDTAVYYCARDYGSYLVSLDYWGQGTLVTVSS
VL: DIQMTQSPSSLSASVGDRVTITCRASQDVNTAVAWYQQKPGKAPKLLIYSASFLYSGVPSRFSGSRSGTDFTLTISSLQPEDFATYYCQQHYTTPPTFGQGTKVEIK
B19: SRP2900-D01 (antibody, IgG1, V domains shown)
VH: B18 VH with S30H, D31E, Y54A, Y57F, N65K, Y103L, L104Q, S106F
VL: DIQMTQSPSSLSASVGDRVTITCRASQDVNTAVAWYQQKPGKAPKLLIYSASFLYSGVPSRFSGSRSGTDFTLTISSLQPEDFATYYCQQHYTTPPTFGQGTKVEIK
B20: SRP2900-A11 (antibody, IgG1, V domains shown)
VH: EVQLVESGGGLVQPGGSLRLSCAASGFTITDYVIHWVRQAPGKGLEWVGYIDPSNGYTYYADSVKGRFTISADTSKNTAYLQMNSLRAEDTAVYYCARDDQSFTSPFDYWGQGTLVTVSS
VL: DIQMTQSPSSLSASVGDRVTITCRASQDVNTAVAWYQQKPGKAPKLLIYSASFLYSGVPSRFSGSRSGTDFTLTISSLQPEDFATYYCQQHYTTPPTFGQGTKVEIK

Target: tissue factor reagent of the Tissue Factor Activity Assay Kit (Abcam #ab108906) (UniProt P13726 33-295, limits assumed)
Experiment: cell-based or functional assay

tissue factor reagent of the Tissue Factor Activity Assay Kit (Abcam #ab108906), sequence (P13726 33-295 limits assumed): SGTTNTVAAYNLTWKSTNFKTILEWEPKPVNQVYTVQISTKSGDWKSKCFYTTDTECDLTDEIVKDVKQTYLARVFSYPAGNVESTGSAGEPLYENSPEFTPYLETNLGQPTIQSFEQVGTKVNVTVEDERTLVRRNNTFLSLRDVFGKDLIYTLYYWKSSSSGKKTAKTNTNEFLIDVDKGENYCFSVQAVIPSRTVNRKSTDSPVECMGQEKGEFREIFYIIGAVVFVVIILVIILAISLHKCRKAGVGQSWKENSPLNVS

Binder	FX conversion (% inhibition), 1000 nM antibody
B1	41.9%
B2	35%
B3	46.3%
B4	42.2%
B5	28.2%
B6	35.5%
B7	36.7%
B8	46.9%
B9	29.6%
B10	33.3%
B11	38.7%
B12	35.7%
B13	41.6%
B14	43.3%
B15	27%
B16	44.1%
B17	22.4%
B18	42.1%
B19	32.7%
B20	31.7%
